According to patent US20080220459A1:

Molecular target: NC4-antiserum (rabbit polyclonal antiserum against the collagen alpha1 (IX) NC4-peptide coupled to KLH)
Assay: inhibition ELISA: free NC4-peptide against binding of NC4-antiserum to solid-phase NC4-peptide

peptide concentration showing efficient inhibition of the binding: 0.3 ng/mL
Binder: H-CGQDDLPGFDLISQFQ-NH2 [NC4-peptide NH2-…^64-CONH2]
